Measurements from patent publication US20130004519A1 (published 2013).

What was measured:
[1] = target: T1, horse fibronectin coupled to CNBr-activated Sepharose 4B (horse, UniProt Q28377 32-2477, limits assumed); test: pull-down from HEK293 conditioned medium on horse fibronectin-Sepharose 4B, nanoLC-MSMS
T1 construct: Second control column of the pull-down; also called fibronectin column; FN-column

[2] = target: T2, His-tagged human tenascin-C (human, UniProt P24821 23-2201); test: SPR (Biacore 2000), tenascin-C-his on CM5 chip, SMOC1 as analyte 3-300 nM, Langmuir 1:1 model, apparent KD
T2 construct: mature; The same construct was coupled to Sepharose 4B, coupled to the CM5 chip and expressed in COS cells for co-immunoprecipitation; also called TNC; hTNC; not shown: His tag
T2 sequence (P24821 23-2201): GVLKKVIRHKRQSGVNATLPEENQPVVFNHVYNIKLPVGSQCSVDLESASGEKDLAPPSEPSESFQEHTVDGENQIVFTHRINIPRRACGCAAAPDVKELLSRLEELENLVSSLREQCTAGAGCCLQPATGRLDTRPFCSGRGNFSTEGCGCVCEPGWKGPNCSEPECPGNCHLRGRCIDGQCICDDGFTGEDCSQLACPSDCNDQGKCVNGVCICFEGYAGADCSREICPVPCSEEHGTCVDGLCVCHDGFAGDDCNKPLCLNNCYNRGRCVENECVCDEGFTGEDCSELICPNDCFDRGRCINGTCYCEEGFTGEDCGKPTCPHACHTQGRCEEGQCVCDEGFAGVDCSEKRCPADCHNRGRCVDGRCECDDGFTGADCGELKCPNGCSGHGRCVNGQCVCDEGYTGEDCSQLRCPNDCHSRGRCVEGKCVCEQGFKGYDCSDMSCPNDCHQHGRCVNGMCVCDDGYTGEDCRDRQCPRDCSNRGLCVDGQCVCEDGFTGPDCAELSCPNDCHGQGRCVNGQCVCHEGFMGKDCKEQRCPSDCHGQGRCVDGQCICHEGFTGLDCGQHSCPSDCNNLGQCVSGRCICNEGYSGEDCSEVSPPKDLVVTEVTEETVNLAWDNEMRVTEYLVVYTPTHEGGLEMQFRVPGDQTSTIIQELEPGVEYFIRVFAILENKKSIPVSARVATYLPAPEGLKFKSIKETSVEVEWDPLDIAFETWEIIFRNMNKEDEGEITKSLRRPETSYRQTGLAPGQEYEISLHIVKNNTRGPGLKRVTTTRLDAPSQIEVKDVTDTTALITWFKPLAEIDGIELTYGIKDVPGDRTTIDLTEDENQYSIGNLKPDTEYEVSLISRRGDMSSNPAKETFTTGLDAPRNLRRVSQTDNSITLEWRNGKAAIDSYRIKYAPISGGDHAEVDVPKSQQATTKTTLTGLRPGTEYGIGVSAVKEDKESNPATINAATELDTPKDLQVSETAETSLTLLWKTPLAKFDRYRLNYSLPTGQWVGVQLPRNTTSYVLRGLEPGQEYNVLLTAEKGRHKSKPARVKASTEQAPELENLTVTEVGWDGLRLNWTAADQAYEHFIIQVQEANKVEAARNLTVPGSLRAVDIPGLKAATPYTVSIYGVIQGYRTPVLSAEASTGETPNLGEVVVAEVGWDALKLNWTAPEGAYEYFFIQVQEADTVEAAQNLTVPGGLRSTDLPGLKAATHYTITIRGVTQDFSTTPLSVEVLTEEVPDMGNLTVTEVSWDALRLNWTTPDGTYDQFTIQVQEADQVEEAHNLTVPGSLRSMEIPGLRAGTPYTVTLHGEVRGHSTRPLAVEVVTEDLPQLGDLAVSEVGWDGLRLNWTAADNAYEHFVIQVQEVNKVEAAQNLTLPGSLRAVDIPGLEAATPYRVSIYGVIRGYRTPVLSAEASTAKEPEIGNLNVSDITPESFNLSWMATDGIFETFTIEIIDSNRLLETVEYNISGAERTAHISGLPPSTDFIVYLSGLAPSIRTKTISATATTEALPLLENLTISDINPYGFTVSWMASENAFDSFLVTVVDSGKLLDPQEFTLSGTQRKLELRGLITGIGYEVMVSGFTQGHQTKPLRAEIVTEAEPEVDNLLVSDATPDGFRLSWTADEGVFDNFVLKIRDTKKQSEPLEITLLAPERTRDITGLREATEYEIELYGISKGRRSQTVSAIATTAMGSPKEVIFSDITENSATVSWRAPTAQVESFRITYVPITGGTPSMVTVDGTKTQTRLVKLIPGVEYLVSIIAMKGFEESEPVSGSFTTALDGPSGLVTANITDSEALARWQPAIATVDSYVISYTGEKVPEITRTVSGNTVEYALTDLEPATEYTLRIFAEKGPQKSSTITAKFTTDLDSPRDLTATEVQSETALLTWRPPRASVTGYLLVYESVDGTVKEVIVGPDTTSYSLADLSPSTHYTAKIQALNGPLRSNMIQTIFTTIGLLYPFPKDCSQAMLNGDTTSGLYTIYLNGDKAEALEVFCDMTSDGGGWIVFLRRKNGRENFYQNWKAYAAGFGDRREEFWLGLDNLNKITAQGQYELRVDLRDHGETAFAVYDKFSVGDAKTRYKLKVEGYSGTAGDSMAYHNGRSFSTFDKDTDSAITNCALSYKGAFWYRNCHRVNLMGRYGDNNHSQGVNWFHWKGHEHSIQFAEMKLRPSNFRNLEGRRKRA
Method: Surface Plasmon Resonance Spectroscopy. Surface plasmon resonance spectroscopy was performed using a Biacore 2000 (BIAcore AB) system. Purified human tenascin-his protein was coupled in 25 mM sodium acetate pH 5 with a flow rate of 5 μl/min to a CM5 chip beforehand activated with N-hydroxysuccinimide and 1-ethyl-3-(3-dimethylaminopropyl)carbodiimide hydrochloride. Unbound reactive groups were then saturated with 1 M ethanolamine hydrochloride, pH 8.5. Experiments were carried out using increasing concentrations (3, 10, 30, 100 and 300 nM) of SMOC1 diluted in running buffer (pH 7.4, 20 mM Hepes, 150 mM NaCl, 2 mM CaCl2, 0.005% P20). The analyte was passed over the sensor chip with a constant flow rate of 25 μl/min for 240 s, and dissociation was measured over 500 s. Fittings of the data, overlay plots, and calculation of KD values were done with BIAevaluation software 4.1.
Interaction between tenascin-C and SMOC1 by Surface Plasmon Resonance Spectroscopy. In order to firmly establish binding between SMOC1 and tenascin-C, the present inventors performed Surface Plasmon Resonance Spectroscopy. Purified his-tagged tenascin-C was coupled to a CM5 chip and SMOC1 were tested as soluble analyte at increasing concentrations. Associations and dissociations of the obtained binding curves were analyzed in a Langmuir 1:1 binding model. […]

[3] = target: T2, His-tagged human tenascin-C; test: pull-down on tenascin-C-Sepharose 4B, multiple reaction monitoring

T1 sequence (Q28377 32-2477 limits assumed): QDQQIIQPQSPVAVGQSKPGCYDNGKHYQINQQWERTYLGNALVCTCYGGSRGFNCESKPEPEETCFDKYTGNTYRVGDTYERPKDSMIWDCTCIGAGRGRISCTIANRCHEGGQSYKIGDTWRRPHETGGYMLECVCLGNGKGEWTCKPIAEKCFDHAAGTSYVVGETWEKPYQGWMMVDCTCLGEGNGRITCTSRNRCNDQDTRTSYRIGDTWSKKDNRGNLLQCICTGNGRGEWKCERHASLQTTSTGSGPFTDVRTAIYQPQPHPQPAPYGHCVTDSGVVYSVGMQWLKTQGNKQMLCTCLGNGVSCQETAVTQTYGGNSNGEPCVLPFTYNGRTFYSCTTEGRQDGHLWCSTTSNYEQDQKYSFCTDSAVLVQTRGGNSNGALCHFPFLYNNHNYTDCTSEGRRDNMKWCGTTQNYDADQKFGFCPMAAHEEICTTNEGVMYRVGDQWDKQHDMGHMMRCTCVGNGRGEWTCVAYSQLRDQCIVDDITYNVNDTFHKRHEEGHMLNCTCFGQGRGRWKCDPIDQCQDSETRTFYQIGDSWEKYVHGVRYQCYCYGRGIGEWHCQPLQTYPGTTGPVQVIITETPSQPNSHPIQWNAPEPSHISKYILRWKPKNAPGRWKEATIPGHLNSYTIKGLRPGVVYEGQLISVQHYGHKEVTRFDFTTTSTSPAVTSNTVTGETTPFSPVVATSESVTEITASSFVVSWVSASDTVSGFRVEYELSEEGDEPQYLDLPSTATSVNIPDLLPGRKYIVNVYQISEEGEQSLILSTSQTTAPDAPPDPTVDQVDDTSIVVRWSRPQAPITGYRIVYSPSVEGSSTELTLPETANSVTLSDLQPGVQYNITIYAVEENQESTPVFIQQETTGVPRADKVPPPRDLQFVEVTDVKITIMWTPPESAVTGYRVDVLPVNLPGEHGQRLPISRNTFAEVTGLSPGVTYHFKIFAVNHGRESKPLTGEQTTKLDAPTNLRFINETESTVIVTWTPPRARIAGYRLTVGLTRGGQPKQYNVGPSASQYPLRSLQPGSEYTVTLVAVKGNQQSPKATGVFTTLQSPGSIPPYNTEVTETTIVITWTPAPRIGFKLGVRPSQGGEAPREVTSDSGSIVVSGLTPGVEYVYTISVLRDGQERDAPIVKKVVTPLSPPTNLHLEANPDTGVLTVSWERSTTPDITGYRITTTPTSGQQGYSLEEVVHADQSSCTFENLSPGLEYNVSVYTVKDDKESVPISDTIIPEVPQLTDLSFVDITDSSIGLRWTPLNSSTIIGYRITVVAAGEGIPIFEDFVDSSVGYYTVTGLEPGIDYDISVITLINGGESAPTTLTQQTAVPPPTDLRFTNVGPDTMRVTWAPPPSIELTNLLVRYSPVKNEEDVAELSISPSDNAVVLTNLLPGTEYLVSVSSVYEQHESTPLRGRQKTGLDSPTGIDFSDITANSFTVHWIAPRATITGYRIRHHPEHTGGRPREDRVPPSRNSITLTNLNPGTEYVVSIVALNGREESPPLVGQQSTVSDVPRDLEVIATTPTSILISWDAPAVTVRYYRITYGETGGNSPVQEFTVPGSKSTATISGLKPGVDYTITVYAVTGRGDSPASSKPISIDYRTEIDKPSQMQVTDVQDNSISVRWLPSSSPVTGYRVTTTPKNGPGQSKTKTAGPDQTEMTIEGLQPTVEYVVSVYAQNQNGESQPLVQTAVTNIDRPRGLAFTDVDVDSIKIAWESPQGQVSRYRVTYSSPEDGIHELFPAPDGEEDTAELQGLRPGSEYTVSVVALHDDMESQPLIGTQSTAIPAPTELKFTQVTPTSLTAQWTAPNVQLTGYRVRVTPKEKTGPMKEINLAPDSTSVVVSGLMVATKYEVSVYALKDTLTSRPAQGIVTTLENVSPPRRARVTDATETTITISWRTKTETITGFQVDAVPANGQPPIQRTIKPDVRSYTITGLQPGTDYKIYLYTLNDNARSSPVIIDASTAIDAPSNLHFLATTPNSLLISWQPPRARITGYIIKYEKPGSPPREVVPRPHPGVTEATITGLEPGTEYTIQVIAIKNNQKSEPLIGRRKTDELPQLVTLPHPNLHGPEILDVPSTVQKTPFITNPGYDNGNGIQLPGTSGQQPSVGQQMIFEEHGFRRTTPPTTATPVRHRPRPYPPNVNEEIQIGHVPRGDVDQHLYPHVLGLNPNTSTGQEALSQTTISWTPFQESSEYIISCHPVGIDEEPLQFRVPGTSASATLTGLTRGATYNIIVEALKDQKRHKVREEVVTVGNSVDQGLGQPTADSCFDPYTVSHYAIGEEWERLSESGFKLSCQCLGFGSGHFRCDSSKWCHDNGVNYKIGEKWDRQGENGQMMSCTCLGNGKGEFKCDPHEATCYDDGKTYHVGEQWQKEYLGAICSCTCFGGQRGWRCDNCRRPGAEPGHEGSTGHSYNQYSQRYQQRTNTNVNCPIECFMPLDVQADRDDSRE

MASCOT Score (fibronectin) [1] | spectrum count (fibronectin) [1] | Kd [2] | normalized enrichment (MRM), tenascin-C against control [3] | Binder
100 | 6 |  |  | Phosphoglycerate kinase 1 (enzyme, human, UniProt P00558 2-417, looked up, also called PGK1) SLSNKLTLDKLDVKGKRVVMRVDFNVPMKNNQITNNQRIKAAVPSIKFCLDNGAKSVVLMSHLGRPDGVPMPDKYSLEPVAVELKSLLGKDVLFLKDCVGPEVEKACANPAAGSVILLENLRFHVEEEGKGKDASGNKVKAEPAKIEAFRASLSKLGDVYVNDAFGTAHRAHSSMVGVNLPQKAGGFLMKKELNYFAKALESPERPFLAILGGAKVADKIQLINNMLDKVNEMIIGGGMAFTFLKVLNNMEIGTSLFDEEGAKIVKDLMSKAEKNGVKITLPVDFVTADKFDENAKTGQATVASGIPAGWMGLDCGPESSKKYAEAVTRAKQIVWNGPVGVFEWEAFARGTKALMDEVVKATSRGCITIIGGGDTATCCAKWNTEDKVSHVSTGGGASLELLEGKVLPGVDALSNI
0 | 0 |  |  | Nidogen-2 (other, human, UniProt Q14112 31-1375, looked up, also called NID2) LHPDELFPHGESWGDQLLQEGDDESSAVVKLANPLHFYEARFSNLYVGTNGIISTQDFPRETQYVDYDFPTDFPAIAPFLADIDTSHGRGRVLYREDTSPAVLGLAARYVRAGFPRSARFTPTHAFLATWEQVGAYEEVKRGALPSGELNTFQAVLASDGSDSYALFLYPANGLQFLGTRPKESYNVQLQLPARVGFCRGEADDLKSEGPYFSLTSTEQSVKNLYQLSNLGIPGVWAFHIGSTSPLDNVRPAAVGDLSAAHSSVPLGRSFSHATALESDYNEDNLDYYDVNEEEAEYLPGEPEEALNGHSSIDVSFQSKVDTKPLEESSTLDPHTKEGTSLGEVGGPDLKGQVEPWDERETRSPAPPEVDRDSLAPSWETPPPYPENGSIQPYPDGGPVPSEMDVPPAHPEEEIVLRSYPASGHTTPLSRGTYEVGLEDNIGSNTEVFTYNAANKETCEHNHRQCSRHAFCTDYATGFCCHCQSKFYGNGKHCLPEGAPHRVNGKVSGHLHVGHTPVHFTDVDLHAYIVGNDGRAYTAISHIPQPAAQALLPLTPIGGLFGWLFALEKPGSENGFSLAGAAFTHDMEVTFYPGEETVRITQTAEGLDPENYLSIKTNIQGQVPYVSANFTAHISPYKELYHYSDSTVTSTSSRDYSLTFGAINQTWSYRIHQNITYQVCRHAPRHPSFPTTQQLNVDRVFALYNDEERVLRFAVTNQIGPVKEDSDPTPGNPCYDGSHMCDTTARCHPGTGVDYTCECASGYQGDGRNCVDENECATGFHRCGPNSVCINLPGSYRCECRSGYEFADDRHTCILITPPANPCEDGSHTCAPAGQARCVHHGGSTFSCACLPGYAGDGHQCTDVDECSENRCHPAATCYNTPGSFSCRCQPGYYGDGFQCIPDSTSSLTPCEQQQRHAQAQYAYPGARFHIPQCDEQGNFLPLQCHGSTGFCWCVDPDGHEVPGTQTPPGSTPPHCGPSPEPTQRPPTICERWRENLLEHYGGTPRDDQYVPQCDDLGHFIPLQCHGKSDFCWCVDKDGREVQGTRSQPGTTPACIPTVAPPMVRPTPRPDVTPPSVGTFLLYTQGQQIGYLPLNGTRLQKDAAKTLLSLHGSIIVGIDYDCRERMVYWTDVAGRTISRAGLELGAEPETIVNSGLISPEGLAIDHIRRTMYWTDSVLDKIESALLDGSERKVLFYTDLVNPRAIAVDPIRGNLYWTDWNREAPKIETSSLDGENRRILINTDIGLPNGLTFDPFSKLLCWADAGTKKLECTLPDGTGRRVIQNNLKYPFSIVSYADHFYHTDWRRDGVVSVNKHSGQFTDEYLPEQRSHLYGITAVYPYCPTGRK
 |  | 2.2 nM |  | human recombinant SMOC1 (soluble analyte in surface plasmon resonance) (other, UniProt Q9H4F8 27-434, looked up, mature; also called hSMOC1; not shown: C-terminal tag: either 6 histidines alone (SMOC1-his) or myc-DDK plus 6 histidines) HRTTGPRFLISDRDPQCNLHCSRTQPKPICASDGRSYESMCEYQRAKCRDPTLGVVHRGRCKDAGQSKCRLERAQALEQAKKPQEAVFVPECGEDGSFTQVQCHTYTGYCWCVTPDGKPISGSSVQNKTPVCSGSVTDKPLSQGNSGRKDDGSKPTPTMETQPVFDGDEITAPTLWIKHLVIKDSKLNNTNIRNSEKVYSCDQERQSALEEAQQNPREGIVIPECAPGGLYKPVQCHQSTGYCWCVLVDTGRPLPGTSTRYVMPSCESDARAKTTEADDPFKDRELPGCPEGKKMEFITSLLDALTTDMVQAINSAAPTGGGRFSEPDPSHTLEERVVHWYFSQLDSNSSNDINKREMKPFKRYVKKKAKPKKCARRFTDYCDLNKDKVISLPELKGCLGVSKEGRLV
0 | 0 |  | 4.5 fold | SPARC-related modular calcium-binding protein 1 (SMOC1) from HEK293 conditioned medium (other, human, UniProt Q9H4F8 27-434, looked up, Endogenous protein pulled down from medium) HRTTGPRFLISDRDPQCNLHCSRTQPKPICASDGRSYESMCEYQRAKCRDPTLGVVHRGRCKDAGQSKCRLERAQALEQAKKPQEAVFVPECGEDGSFTQVQCHTYTGYCWCVTPDGKPISGSSVQNKTPVCSGSVTDKPLSQGNSGRKDDGSKPTPTMETQPVFDGDEITAPTLWIKHLVIKDSKLNNTNIRNSEKVYSCDQERQSALEEAQQNPREGIVIPECAPGGLYKPVQCHQSTGYCWCVLVDTGRPLPGTSTRYVMPSCESDARAKTTEADDPFKDRELPGCPEGKKMEFITSLLDALTTDMVQAINSAAPTGGGRFSEPDPSHTLEERVVHWYFSQLDSNSSNDINKREMKPFKRYVKKKAKPKKCARRFTDYCDLNKDKVISLPELKGCLGVSKEGRLV
